From paper doi:10.1101/2024.05.24.595734 (bioRxiv, 2024)

Columns and labels:
[1] = molecular target: PrfA^WT (Listeria monocytogenes virulence master regulator PrfA) (Listeria monocytogenes) (UniProt P22262); assay: ITC
[2] = molecular target: the molecule itself; assay: crystal structure

Work on tripeptide EVF yielded a Kd [1] of 12 µM.

B1: PrfA^WT (Listeria monocytogenes virulence master regulator PrfA) (natural protein)
chain: GAMNAQAEEFKKYLETNGIKPKQFHKKELIFNQWDPQEYCIFLYDGITKLTSISENGTIMNLQYYKGAFVIMSGFIDTETSVGYYNLEVISEQATAYVIKINELKELLSKNLTHFFYVFQTLQKQVSYSLAKFNDFSINGKLGSICGQLLILTYVYGKETPDGIKITLDNLTMQELGYSSGIAHSSAVSRIISKLKQEKVIVYKNSCFYVQNLDYLKRYAPKLDEWFYLACPATWGKLN
B1: binds [2].

Molecule EVFL [tetrapeptide EVFL] has a Kd [1] of 15 µM.

STLL [tetrapeptide STLL] was tested, and the Kd [1] was 32 µM.

For RGLL [tetrapeptide RGLL], the Kd [1] was 145 µM.
